For this data set, the system named is Escherichia coli TOP10. As to the kind of experiment: shrunken log2 fold change of peptide-encoding DNA abundance (4.5 h post-induction vs induction); higher = less antimicrobial activity (less host growth inhibition). The following applies: time post-induction: 4.5 h; library: site-saturation at positions 5, 18, 19, 20.
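Also: peptides expressed intracellularly from a pBAD plasmid library in pooled LB shake-flask culture, induced with 0.3% L-arabinose, DNA abundance read by NGS, three biological replicates, DESeq2 with apeglm shrinkage.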

For the sequence RRIRRRPPRLPRPRPRPTIRPRP, the “shrunken log2 fold change” value stood at 0.129. The value for RRIRVRPPRLPRPRPRPRFIPRP was -0.318; that for RRIRHRPPRLPRPRPRPAFCPRP was 0.0444. The value for RRIRQRPPRLPRPRPRPSLVPRP was -0.0806; that for RRIRPRPPRLPRPRPRPGHRPRP was 0.0675. Take RRIRARPPRLPRPRPRPICTPRP: the “shrunken log2 fold change” value worked out at 0.197. As for RRIRGRPPRLPRPRPRPPVAPRP, the “shrunken log2 fold change” value turned out to be 1.22. Then RRIRVRPPRLPRPRPRPTAQPRP, with -0.113. Take RRIRQRPPRLPRPRPRPTSLPRP: the “shrunken log2 fold change” value was -0.0738. Regarding RRIRRRPPRLPRPRPRPERWPRP, the “shrunken log2 fold change” value amounted to 0.613.

Consider RRIRHRPPRLPRPRPRPMKEPRP, for which the “shrunken log2 fold change” value is 0.0572. In the case of RRIRNRPPRLPRPRPRPTDCPRP, the “shrunken log2 fold change” value is -0.484.

In the case of RRIRYRPPRLPRPRPRPKVAPRP, the “shrunken log2 fold change” value is -0.013. As for RRIRWRPPRLPRPRPRPPDWPRP, the “shrunken log2 fold change” value was 1.19. Take RRIRARPPRLPRPRPRPDLPPRP: the “shrunken log2 fold change” value turned out to be 0.311.

Regarding RRIRPRPPRLPRPRPRPMVEPRP, the “shrunken log2 fold change” value is -0.112. For the sequence RRIRARPPRLPRPRPRPKKDPRP, the “shrunken log2 fold change” value stood at 0.468.

As for RRIRNRPPRLPRPRPRPHNSPRP, the “shrunken log2 fold change” value was -0.767. Turning to RRIRARPPRLPRPRPRPGANPRP, the “shrunken log2 fold change” value was determined as 0.589. RRIRRRPPRLPRPRPRPQHEPRP: the “shrunken log2 fold change” value came to 0.343. For RRIRIRPPRLPRPRPRPSMAPRP, the “shrunken log2 fold change” value is -0.531.

Turning to RRIRGRPPRLPRPRPRPNNFPRP, the “shrunken log2 fold change” value came out at 0.291. The value for RRIRHRPPRLPRPRPRPFGMPRP was -0.0621. Turning to RRIRPRPPRLPRPRPRPNYVPRP, the “shrunken log2 fold change” value is -0.352.

With RRIRRRPPRLPRPRPRPTDSPRP, the “shrunken log2 fold change” value turned out to be 0.485. RRIRMRPPRLPRPRPRPLYFPRP: the “shrunken log2 fold change” value is -0.302.

For the sequence RRIRFRPPRLPRPRPRPGHYPRP, the “shrunken log2 fold change” value was -0.205.

With RRIRKRPPRLPRPRPRPKTPPRP, the “shrunken log2 fold change” value is 0.477.

RRIRWRPPRLPRPRPRPSLNPRP: the “shrunken log2 fold change” value was -0.0829. The value for RRIRERPPRLPRPRPRPNHAPRP was -0.239; that for RRIRMRPPRLPRPRPRPSKTPRP was 0.00519; that for RRIRSRPPRLPRPRPRPDLAPRP was 0.444. RRIRPRPPRLPRPRPRPWVVPRP: the “shrunken log2 fold change” value amounted to 0.0434. In the case of RRIRIRPPRLPRPRPRPNVYPRP, the “shrunken log2 fold change” value is -0.228.

In the case of RRIRQRPPRLPRPRPRPDEQPRP, the “shrunken log2 fold change” value came to 0.0145. Then RRIRWRPPRLPRPRPRPQAPPRP, with -0.164.

As to RRIRVRPPRLPRPRPRPCISPRP, the “shrunken log2 fold change” value turned out to be 0.00333.

Regarding RRIRFRPPRLPRPRPRPEGGPRP, the “shrunken log2 fold change” value is 0.586.

For the sequence RRIRPRPPRLPRPRPRPGFEPRP, the “shrunken log2 fold change” value stood at 0.225.

On to RRIRARPPRLPRPRPRPNQCPRP, for which the “shrunken log2 fold change” value is -0.176. Then RRIRWRPPRLPRPRPRPTCYPRP, with -0.0755; and RRIRKRPPRLPRPRPRPQDPPRP, with 1.55. For the sequence RRIRCRPPRLPRPRPRPLMCPRP, the “shrunken log2 fold change” value was -0.306. Turning to RRIRGRPPRLPRPRPRPCFMPRP, the “shrunken log2 fold change” value worked out at 0.0852. RRIRIRPPRLPRPRPRPCSSPRP: the “shrunken log2 fold change” value worked out at 0.00235. Consider RRIRTRPPRLPRPRPRPAVEPRP, for which the “shrunken log2 fold change” value was -0.011.

With RRIRTRPPRLPRPRPRPQQTPRP, the “shrunken log2 fold change” value stood at 0.0814.

Take RRIRTRPPRLPRPRPRPHWGPRP: the “shrunken log2 fold change” value was 0.229. Consider RRIRRRPPRLPRPRPRPADDPRP, for which the “shrunken log2 fold change” value was determined as 0.213. RRIRDRPPRLPRPRPRPRLYPRP: the “shrunken log2 fold change” value was -0.0462. With RRIRGRPPRLPRPRPRPITGPRP, the “shrunken log2 fold change” value was found to be 0.064. RRIRMRPPRLPRPRPRPYNVPRP: the “shrunken log2 fold change” value is -0.3. For RRIRYRPPRLPRPRPRPCNKPRP, the “shrunken log2 fold change” value was -0.0167. For the sequence RRIRERPPRLPRPRPRPKKPPRP, the “shrunken log2 fold change” value was 0.507. For RRIRKRPPRLPRPRPRPGAGPRP, the “shrunken log2 fold change” value was 0.734. With RRIRIRPPRLPRPRPRPNHYPRP, the “shrunken log2 fold change” value was -0.492.

RRIRWRPPRLPRPRPRPIQYPRP: the “shrunken log2 fold change” value is -0.101.

On to RRIRIRPPRLPRPRPRPTSGPRP, for which the “shrunken log2 fold change” value is -0.00782. The value for RRIRFRPPRLPRPRPRPLAPPRP was 0.193.

Regarding RRIRERPPRLPRPRPRPTEFPRP, the “shrunken log2 fold change” value was 0.000688. Then RRIRRRPPRLPRPRPRPILLPRP, with -0.149; and RRIRARPPRLPRPRPRPGQEPRP, with 0.0636; and RRIRDRPPRLPRPRPRPNLNPRP, with -0.229.

Turning to RRIRHRPPRLPRPRPRPIRTPRP, the “shrunken log2 fold change” value is -0.0747. With RRIRVRPPRLPRPRPRPYTFPRP, the “shrunken log2 fold change” value was -0.314. Regarding RRIRHRPPRLPRPRPRPKHLPRP, the “shrunken log2 fold change” value is -0.237. As for RRIRWRPPRLPRPRPRPACLPRP, the “shrunken log2 fold change” value stood at 0.521.

Turning to RRIRVRPPRLPRPRPRPACWPRP, the “shrunken log2 fold change” value was 0.517. On to RRIRMRPPRLPRPRPRPEKSPRP, for which the “shrunken log2 fold change” value turned out to be 2.

Regarding RRIRKRPPRLPRPRPRPCRFPRP, the “shrunken log2 fold change” value came to 0.0338. In the case of RRIRNRPPRLPRPRPRPWHSPRP, the “shrunken log2 fold change” value was -0.496. With RRIRLRPPRLPRPRPRPHIQPRP, the “shrunken log2 fold change” value was -0.341. Consider RRIRLRPPRLPRPRPRPWKGPRP, for which the “shrunken log2 fold change” value was 0.0434.

Turning to RRIRDRPPRLPRPRPRPTDVPRP, the “shrunken log2 fold change” value is -0.0358. Then RRIRLRPPRLPRPRPRPTNGPRP, with 0.129; and RRIRSRPPRLPRPRPRPYNSPRP, with -0.287. Consider RRIRHRPPRLPRPRPRPFGPPRP, for which the “shrunken log2 fold change” value is -0.247. In the case of RRIRDRPPRLPRPRPRPHCGPRP, the “shrunken log2 fold change” value came out at 0.00511. The value for RRIRERPPRLPRPRPRPVSIPRP was -1.57. As to RRIRRRPPRLPRPRPRPTRSPRP, the “shrunken log2 fold change” value was 0.341. Take RRIRRRPPRLPRPRPRPAGPPRP: the “shrunken log2 fold change” value came to 0.446. Take RRIRERPPRLPRPRPRPMTVPRP: the “shrunken log2 fold change” value is -0.124. On to RRIRRRPPRLPRPRPRPVICPRP, for which the “shrunken log2 fold change” value was 0.164. On to RRIRPRPPRLPRPRPRPPKIPRP, for which the “shrunken log2 fold change” value is 0.0961. The value for RRIRDRPPRLPRPRPRPRVRPRP was 0.106; that for RRIRCRPPRLPRPRPRPYSPPRP was -1.13; that for RRIRHRPPRLPRPRPRPPHKPRP was 0.0336. As for RRIRIRPPRLPRPRPRPNFCPRP, the “shrunken log2 fold change” value was -0.162. Consider RRIRTRPPRLPRPRPRPSDGPRP, for which the “shrunken log2 fold change” value was 0.0381.

As for RRIRLRPPRLPRPRPRPMWMPRP, the “shrunken log2 fold change” value was -0.00116.

Take RRIRFRPPRLPRPRPRPQKHPRP: the “shrunken log2 fold change” value is -0.327. Turning to RRIRLRPPRLPRPRPRPYTTPRP, the “shrunken log2 fold change” value is -0.488. Consider RRIRGRPPRLPRPRPRPMDHPRP, for which the “shrunken log2 fold change” value was -0.137. The value for RRIRGRPPRLPRPRPRPNIWPRP was 0.373; that for RRIRLRPPRLPRPRPRPCKGPRP was -0.0757; that for RRIRWRPPRLPRPRPRPELQPRP was 0.326. On to RRIRTRPPRLPRPRPRPLWKPRP, for which the “shrunken log2 fold change” value is -0.178. For the sequence RRIRVRPPRLPRPRPRPWVVPRP, the “shrunken log2 fold change” value was -0.0754. Take RRIRQRPPRLPRPRPRPSLFPRP: the “shrunken log2 fold change” value was -0.11. As to RRIRFRPPRLPRPRPRPSSMPRP, the “shrunken log2 fold change” value was -0.965.

Take RRIRSRPPRLPRPRPRPYIFPRP: the “shrunken log2 fold change” value was -0.683. RRIRERPPRLPRPRPRPAEWPRP: the “shrunken log2 fold change” value is 0.143. The value for RRIRMRPPRLPRPRPRPPIEPRP was 0.309; that for RRIRMRPPRLPRPRPRPARVPRP was 1.28. As for RRIRPRPPRLPRPRPRPPLRPRP, the “shrunken log2 fold change” value is 0.336. For the sequence RRIRPRPPRLPRPRPRPAYIPRP, the “shrunken log2 fold change” value is -0.518.

RRIRERPPRLPRPRPRPLKRPRP: the “shrunken log2 fold change” value was -0.28. Turning to RRIRQRPPRLPRPRPRPEDCPRP, the “shrunken log2 fold change” value worked out at 0.0138. Then RRIRSRPPRLPRPRPRPEIEPRP, with 0.0942. For RRIRCRPPRLPRPRPRPRLNPRP, the “shrunken log2 fold change” value stood at 0.00503. The value for RRIRCRPPRLPRPRPRPRRFPRP was 0.338; that for RRIRMRPPRLPRPRPRPSRQPRP was 0.956; that for RRIRPRPPRLPRPRPRPVRAPRP was 0.622. The value for RRIRKRPPRLPRPRPRPQRNPRP was 0.0463; that for RRIRTRPPRLPRPRPRPFHVPRP was -0.0683. Regarding RRIRHRPPRLPRPRPRPNWPPRP, the “shrunken log2 fold change” value is 0.234.

For RRIRARPPRLPRPRPRPLSAPRP, the “shrunken log2 fold change” value stood at 0.636. RRIRERPPRLPRPRPRPRVNPRP: the “shrunken log2 fold change” value is -0.157. Then RRIRSRPPRLPRPRPRPKNRPRP, with 0.0193. With RRIRRRPPRLPRPRPRPNSYPRP, the “shrunken log2 fold change” value is -0.116. Take RRIRWRPPRLPRPRPRPCQMPRP: the “shrunken log2 fold change” value is -0.0107.

Regarding RRIRDRPPRLPRPRPRPAAKPRP, the “shrunken log2 fold change” value was 0.359. Turning to RRIRSRPPRLPRPRPRPYQLPRP, the “shrunken log2 fold change” value was -0.149. RRIRVRPPRLPRPRPRPAMPPRP: the “shrunken log2 fold change” value turned out to be 0.0637. With RRIRMRPPRLPRPRPRPWQIPRP, the “shrunken log2 fold change” value was -0.224.

The values are drawn from the supplement of paper PMC9112550, “Optimization of the antimicrobial peptide Bac7 by deep mutational scanning” (BMC Biology, 2022).
